In assay [1] the target is T1, human IL-1RAPL1 extracellular domain-Fc chimera (human, UniProt Q9NZN1 19-357).
T1 construct: extracellular domain; Coated on 96 well plates at 0.5 ug; also called IL-1RAPL1-Fc; immobilized IL-1RAPL1; not shown: Fc part of the chimera
T1 sequence (looked up): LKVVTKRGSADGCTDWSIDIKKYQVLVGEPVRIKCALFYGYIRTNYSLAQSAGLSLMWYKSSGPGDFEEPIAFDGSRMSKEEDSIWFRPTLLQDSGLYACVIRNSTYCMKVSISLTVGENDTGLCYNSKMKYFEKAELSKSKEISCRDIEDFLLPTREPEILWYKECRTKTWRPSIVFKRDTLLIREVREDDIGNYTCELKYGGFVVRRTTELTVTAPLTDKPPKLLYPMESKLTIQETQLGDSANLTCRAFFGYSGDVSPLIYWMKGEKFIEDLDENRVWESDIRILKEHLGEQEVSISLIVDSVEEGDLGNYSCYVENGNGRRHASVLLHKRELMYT
The experiment in a line: plate binding assay on immobilized IL-1RAPL1 extracellular domain-Fc chimera (FIG. 7B). As for the experimental part: (§1) After 24 h IL-6 concentration in the supernatants was measured using cytometric bead array, normalized results are shown. Data are means±SEM, n=7. (B) Binding kinetics of full length and cleaved IL-38 to immobilized IL-1RAPL1. […] IL-38 binding to the extracellular domain of the receptors was detected using biotinylated monoclonal IL-38 antibody. Data are means±SEM, n=5.*p<0.05, ANOVA with Bonferroni's correction.
(§2) The inventors performed a receptor binding assay as explained above. Both IL-38 isoforms bound to IL-1RAPL1 in this assay (FIG. 7B). However, binding kinetics seemed to differ slightly. […] IL-1RAPL1 knock-down in macrophages abrogated both, IL-6 induction by full-length 11-38 and IL-6 suppression by truncated IL-38 (FIG. 7C).

Assay [2] concerns the target T1, human IL-1RAPL1 extracellular domain-Fc …. The experiment in a line: plate binding assay: IL-1RAPL1-Fc coated, IL-38 titrated, detected with biotinylated monoclonal IL-38 antibody. The procedure:
as §1, §2

Experimental findings from patent US20200277349A1 (FRAUNHOFER GESELLSCHAFT ZUR F RDERUNG DER ANGEWANDTEN …, published 2020) are described below.

B1: recombinant human truncated (cleaved) IL-38 (IL-38aa20-152) (ligand)
chain: LYTRDGQLLVGDPVADNCCAEKICILPNRGLARTKVPIFLGIQGGSRCLACVETEEGPSLQLEDVNIEELYKGGEEATRFTFFQSSSGSAFRLEAAAWPGWFLCGPAEPQQPVQLTKESEPSARTKFYFEQSW
notes: also called truncated IL-38
On to B1, for which, in assay [1], the binding result is “binds”.

B2: recombinant human full length IL-38 (IL-38aa1-152) (ligand)
chain: MCSLPMARYYIIKYADQKALYTRDGQLLVGDPVADNCCAEKICILPNRGLARTKVPIFLGIQGGSRCLACVETEEGPSLQLEDVNIEELYKGGEEATRFTFFQSSSGSAFRLEAAAWPGWFLCGPAEPQQPVQLTKESEPSARTKFYFEQSW
On to B2, for which the binding result in assay [2] was “binds”.
